From the supplement of paper PMC10567573

B1: SMG5 (parent)
chain: TNPDLIIVCAQSSQSLWNRLSVLL

Variants of: B1
Assay: protein stability index of a GFP-peptide fusion (GPS, HEK-293T) (PSI 1-6); higher = more stable
Settings: c terminus: a fixed tail appended
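Also: lentivirally expressed fusions sorted by FACS into six bins by GFP to DsRed ratio, PSI derived from sequencing read proportions per bin multiplied by bin number.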

| Variant | protein stability index |
| --- | --- |
| V8Q | 1.85 |
| V8A | 1.43 |
| V8D | 2.09 |
| V8S | 1.7 |
| V8M | 1.46 |
| V8G | 2.27 |
| V8K | 1.47 |
| V8N | 1.88 |
| V8Y | 2.59 |
| V8L | 3.74 |
| V8R | 2.22 |
| V8T | 1.72 |
| V8I | 2.93 |
| V8H | 1.91 |
| V8P | 1.31 |
| S13L | 2.97 |
| S13D | 1.59 |
| S13K | 2.48 |
| S13C | 2.21 |
| S13W | 1.55 |
| S13F | 1.49 |
| S13N | 2.7 |
| S13V | 1.88 |
| S13G | 2.42 |

| Variant | protein stability index |
| --- | --- |
| S13H | 1.53 |
| S13Q | 1.83 |
| S13I | 1.41 |
| S13E | 1.57 |
| S13Y | 3.59 |
| S13A | 1.16 |
| L24V | 3.05 |
| L24S | 1.38 |
| L24W | 2.26 |
| L24H | 2.54 |
| L24Y | 1.85 |
| L24T | 2.64 |
| L24F | 2.86 |
| L24A | 2.73 |
| L24N | 2.45 |
| L24M | 3.19 |
| L24P | 1.38 |
| L24E | 3.27 |
| L24D | 2.8 |
| L24G | 2.84 |
| L24R | 1.93 |
| N2T | 4.22 |
| N2D | 3.01 |
| N2M | 2.18 |

| Variant | protein stability index |
| --- | --- |
| N2K | 2.66 |
| N2I | 2.22 |
| N2C | 2.8 |
| N2R | 2.88 |
| N2E | 2.26 |
| N2G | 2.66 |
| N2W | 3.06 |
| N2P | 3.06 |
| N2H | 1.88 |
| L23I | 2.27 |
| L23F | 2.33 |
| L23S | 2.68 |
| L23K | 1.99 |
| L23C | 3.62 |
| L23A | 1.84 |
| L23P | 3.47 |
| L23E | 2.75 |
| L23V | 2.8 |
| L23R | 2.83 |
| L23N | 3.27 |
| L23W | 2.85 |
| L23D | 1.73 |
| P3W | 3.4 |
| P3N | 2.52 |

| Variant | protein stability index |
| --- | --- |
| P3I | 4.44 |
| P3K | 2.48 |
| P3V | 4.46 |
| P3S | 2.5 |
| P3D | 1.77 |
| P3E | 2.57 |
| P3A | 3.05 |
| P3G | 3.64 |
| P3M | 2.64 |
| P3Q | 1.71 |
| P3R | 3.61 |
| P3F | 2.18 |
| P3L | 2.29 |
| T1M | 2.97 |
| T1I | 3.34 |
| T1W | 2.35 |
| T1H | 2.44 |
| T1A | 1.38 |
| T1P | 1.98 |
| T1Y | 1.66 |
| T1D | 1.57 |
| T1F | 2.28 |
| T1N | 3.25 |
| T1K | 4.48 |

| Variant | protein stability index |
| --- | --- |
| T1R | 1.37 |
| T1Q | 3.39 |
| T1L | 2.36 |
| L5E | 2.95 |
| L5T | 2.4 |
| L5V | 2.51 |
| L5C | 3.93 |
| L5I | 2.06 |
| L5N | 1.63 |
| L5F | 3.72 |
| L5D | 1.76 |
| L5S | 2.17 |
| L5W | 1.4 |
| L5Q | 1.73 |
| L5Y | 1.47 |
| L5A | 2.09 |
| L20N | 3.27 |
| L20H | 1.7 |
| L20F | 1.81 |
| L20D | 1.83 |
| L20T | 2.02 |
| L20C | 2.88 |
| L20V | 1.7 |
| L20W | 3.72 |

| Variant | protein stability index |
| --- | --- |
| L20I | 2.41 |
| L20M | 2.24 |
| L20G | 2.45 |
| L20S | 2.19 |
| L20E | 3.06 |
| L20Q | 2.08 |
| L20A | 2.15 |
| L20K | 2.77 |
| S12G | 2.1 |
| S12I | 3.02 |
| S12K | 1.89 |
| S12F | 3.37 |
| S12P | 1.33 |
| S12Y | 4.01 |
| S12C | 3.33 |
| S12E | 2.22 |
| S12M | 2.99 |
| S12N | 1.99 |
| S12D | 2.12 |
| S12R | 3.06 |
| S12H | 3.49 |
| S12L | 3.9 |
| R19L | 1.57 |
| R19S | 2.06 |

| Variant | protein stability index |
| --- | --- |
| R19M | 2.1 |
| R19F | 1.84 |
| R19Q | 2.95 |
| R19T | 3.21 |
| R19H | 2.54 |
| R19P | 3.09 |
| R19G | 3.61 |
| R19K | 2.5 |
| R19D | 3.35 |
| R19N | 5.11 |
| R19Y | 1.41 |
| R19E | 3.19 |
| R19V | 1.86 |
| D4H | 3.73 |
| D4V | 1.67 |
| D4Q | 2.18 |
| D4M | 4.85 |
| D4R | 1.94 |
| D4S | 1.76 |
| D4C | 1.05 |
| D4K | 3.33 |
| D4F | 1.71 |
| D4A | 1.33 |
| D4I | 2.79 |

| Variant | protein stability index |
| --- | --- |
| D4G | 1.65 |
| D4P | 1.95 |
| A10S | 2.94 |
| A10P | 4.01 |
| A10I | 3.25 |
| A10D | 2.01 |
| A10M | 2.8 |
| A10Q | 2.4 |
| A10N | 1.95 |
| A10W | 2.35 |
| A10C | 2.61 |
| A10G | 1.98 |
| A10K | 1.59 |
| A10F | 3.77 |
| A10H | 2.68 |
| A10Y | 3.09 |
| A10T | 2.17 |
| Q14D | 3.38 |
| Q14P | 2.09 |
| Q14K | 3.23 |
| Q14L | 1.6 |
| Q14S | 2.68 |
| Q14V | 3.03 |
| Q14G | 2.23 |

| Variant | protein stability index |
| --- | --- |
| Q14N | 2.81 |
| Q14R | 2.73 |
| Q14E | 1.6 |
| L16T | 3.24 |
| L16H | 3.7 |
| L16E | 2.42 |
| L16N | 2.81 |
| L16S | 2.53 |
| L16Y | 2.81 |
| L16K | 3.19 |
| L16M | 3.23 |
| L16D | 3.33 |
| L16I | 2.02 |
| L16F | 3.11 |
| L16A | 2.1 |
| L16W | 1.93 |
| L16C | 2.91 |
| C9N | 2.35 |
| C9I | 2.72 |
| C9D | 2.29 |
| C9A | 2.28 |
| C9Q | 2.09 |
| C9Y | 1.56 |
| C9K | 1.98 |

| Variant | protein stability index |
| --- | --- |
| C9M | 1.76 |
| C9L | 3.72 |
| C9E | 1.72 |
| C9S | 3.03 |
| C9F | 2.64 |
| C9W | 3.33 |
| C9P | 1.92 |
| C9G | 1.45 |
| C9H | 1.64 |
| C9T | 1.95 |
| I7Q | 1.6 |
| I7F | 1.45 |
| I7H | 1.68 |
| I7L | 3.84 |
| I7W | 4.05 |
| I7N | 1.64 |
| I7C | 2.48 |
| I7D | 1.7 |
| I7M | 1.67 |
| I7R | 2.02 |
| I7K | 1.71 |
| I7E | 2.25 |
| I7G | 2.55 |
| V22P | 2.62 |

| Variant | protein stability index |
| --- | --- |
| V22M | 2.98 |
| V22K | 2.17 |
| V22F | 2.52 |
| V22W | 1.24 |
| V22L | 3.21 |
| V22D | 2.03 |
| V22H | 1.84 |
| V22Q | 1.65 |
| V22E | 1.91 |
| V22I | 4.58 |
| V22S | 2.36 |
| V22C | 3.03 |
| V22G | 1.81 |
| Q11T | 3.57 |
| Q11R | 2.19 |
| Q11Y | 4.08 |
| Q11G | 2.09 |
| Q11N | 2 |
| Q11F | 1.67 |
| Q11M | 2.81 |
| Q11P | 3.62 |
| Q11V | 3.29 |
| Q11D | 3.08 |
| Q11E | 1.32 |

| Variant | protein stability index |
| --- | --- |
| Q11K | 2.89 |
| Q11C | 3.76 |
| S15W | 1.76 |
| S15R | 1.25 |
| S15K | 3.11 |
| S15G | 2.9 |
| S15L | 2.45 |
| S15F | 4.58 |
| S15H | 2.18 |
| S15P | 3.51 |
| S15D | 2.19 |
| S15Q | 2.12 |
| S15Y | 2.49 |
| S15C | 3.21 |
| S15A | 2.62 |
| S15I | 4.01 |
| S15N | 3.11 |
| I6E | 2.34 |
| I6C | 1.26 |
| I6L | 2.64 |
| I6R | 2.2 |
| I6V | 4.02 |
| I6S | 2.87 |
| I6W | 2.5 |

| Variant | protein stability index |
| --- | --- |
| I6A | 2.1 |
| I6P | 2.57 |
| I6K | 2.36 |
| I6G | 2.65 |
| I6D | 1.8 |
| I6M | 1.93 |
| I6H | 1.66 |
| S21Y | 3.25 |
| S21W | 2.75 |
| S21G | 3.14 |
| S21L | 2.07 |
| S21R | 2 |
| S21A | 3.16 |
| S21M | 1.58 |
| S21T | 3.07 |
| S21K | 2.19 |
| S21C | 2.21 |
| S21P | 2.6 |
| S21I | 3.08 |
| S21H | 2.52 |
| S21V | 2.88 |
| N18W | 1.92 |
| N18I | 2.43 |
| N18T | 2.56 |

| Variant | protein stability index |
| --- | --- |
| N18D | 2.97 |
| N18Y | 3.31 |
| N18L | 5.57 |
| N18R | 1.49 |
| N18G | 2.69 |
| N18H | 2.56 |
| N18P | 3.09 |
| N18C | 2.27 |
| N18K | 2 |
| W17C | 4.36 |
| W17K | 2.05 |
| W17S | 3.57 |
| W17L | 3.96 |
| W17I | 2.47 |
| W17A | 4.21 |
| W17T | 2.58 |
| W17Y | 2.88 |
| W17P | 2.82 |
| W17D | 1.77 |
| W17M | 3.06 |
| W17E | 3 |
| W17V | 2.79 |
